# From IntAct's records for PubMed 15935762
# B1: Protein pop-1 (Caenorhabditis elegans), Q10666 (parent)
# chain: MMADEELGDEVKVFRRDEDADDDPMISGETSEQQLADDKKEAVMEAELDGAGRNPSIDVLKSAFPKVEPMSPSFPGLMSHFSPGYSAAALPMFMPLFMNPYAAALRSPSLMFPMGAMSPTFPMFPPSPVYGAAIAAAAAKQHFENMAPLNMRAGHPMNQMGMPPYMHPSSMAPQNVDRRAQGGGKAKKDDHVKKPLNAFMWFMKENRKALLEEIGNNEKQSAELNKELGKRWHDLSKEEQAKYFEMAKKDKETHKERYPEWSARENYAVNKKKTKKRRDKSIPSENNDQKKCRARFGVNNTEMWCKFCKRKKKCEYATDRSGGSDITDSQDGRGTSGAYSSSSESPSPKANAGIALTTQQQQAAMMHTMLMQMRLGSTTGASTHVPSPLASSSAGRSPLDANASDSESDVEEEEDEQIDPTVMQQTHDMLMQESMCTI
# partner: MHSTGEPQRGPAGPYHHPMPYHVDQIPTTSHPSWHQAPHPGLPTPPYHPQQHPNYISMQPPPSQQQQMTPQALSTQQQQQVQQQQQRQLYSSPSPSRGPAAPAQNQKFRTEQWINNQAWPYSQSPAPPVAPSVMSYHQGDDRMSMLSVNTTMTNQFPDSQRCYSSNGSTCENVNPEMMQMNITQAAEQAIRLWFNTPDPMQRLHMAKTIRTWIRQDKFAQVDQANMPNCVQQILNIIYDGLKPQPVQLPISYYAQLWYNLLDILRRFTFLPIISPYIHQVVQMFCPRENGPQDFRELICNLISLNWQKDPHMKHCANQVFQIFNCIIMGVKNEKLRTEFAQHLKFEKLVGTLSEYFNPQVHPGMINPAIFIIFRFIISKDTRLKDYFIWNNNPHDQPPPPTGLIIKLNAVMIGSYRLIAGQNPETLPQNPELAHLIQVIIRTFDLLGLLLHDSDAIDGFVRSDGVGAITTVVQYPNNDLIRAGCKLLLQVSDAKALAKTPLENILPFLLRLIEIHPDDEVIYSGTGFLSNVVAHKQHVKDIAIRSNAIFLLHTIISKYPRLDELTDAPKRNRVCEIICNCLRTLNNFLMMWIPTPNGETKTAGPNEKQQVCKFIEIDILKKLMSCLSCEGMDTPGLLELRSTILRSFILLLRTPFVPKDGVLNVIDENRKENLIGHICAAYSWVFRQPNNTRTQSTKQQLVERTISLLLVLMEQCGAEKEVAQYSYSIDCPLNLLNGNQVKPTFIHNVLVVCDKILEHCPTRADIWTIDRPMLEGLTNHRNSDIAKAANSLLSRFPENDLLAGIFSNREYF
# B2: Protein pop-1 (Caenorhabditis elegans), Q10666 (parent)
# chain: B1 chain
# partner: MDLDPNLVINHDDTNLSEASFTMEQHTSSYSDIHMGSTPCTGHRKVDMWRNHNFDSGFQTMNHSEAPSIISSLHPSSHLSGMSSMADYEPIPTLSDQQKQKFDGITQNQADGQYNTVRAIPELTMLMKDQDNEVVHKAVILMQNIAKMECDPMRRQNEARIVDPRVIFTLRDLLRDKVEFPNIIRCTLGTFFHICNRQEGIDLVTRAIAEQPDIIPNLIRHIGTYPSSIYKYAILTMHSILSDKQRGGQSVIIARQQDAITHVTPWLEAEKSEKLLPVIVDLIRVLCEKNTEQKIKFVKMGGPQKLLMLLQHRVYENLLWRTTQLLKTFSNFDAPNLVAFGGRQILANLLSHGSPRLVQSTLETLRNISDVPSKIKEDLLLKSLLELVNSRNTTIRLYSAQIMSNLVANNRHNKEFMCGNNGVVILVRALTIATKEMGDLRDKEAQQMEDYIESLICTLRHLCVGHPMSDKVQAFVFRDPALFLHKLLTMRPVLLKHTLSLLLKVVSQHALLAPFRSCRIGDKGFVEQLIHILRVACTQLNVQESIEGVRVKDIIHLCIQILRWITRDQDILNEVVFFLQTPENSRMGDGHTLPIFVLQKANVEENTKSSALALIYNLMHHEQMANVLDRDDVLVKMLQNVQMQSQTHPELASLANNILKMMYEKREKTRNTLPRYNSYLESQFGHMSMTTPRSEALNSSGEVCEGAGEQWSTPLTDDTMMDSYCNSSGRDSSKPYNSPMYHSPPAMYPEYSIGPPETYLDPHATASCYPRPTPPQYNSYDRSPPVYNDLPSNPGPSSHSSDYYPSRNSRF
# Variants of: B1
# Details: with ctnh1_caeel sys-1, Q9XVI2
row,effect of a mutation on the interaction,Variant
1,disrupting interaction strength,MMADEELGEEVKVFRRDEDADDDPMISGETSEQQLADDKKEAVMEAELDGAGRNPSIDVLKSAFPKVEPMSPSFPGLMSHFSPGYSAAALPMFMPLFMNPYAAALRSPSLMFPMGAMSPTFPMFPPSPVYGAAIAAAAAKQHFENMAPLNMRAGHPMNQMGMPPYMHPSSMAPQNVDRRAQGGGKAKKDDHVKKPLNAFMWFMKENRKALLEEIGNNEKQSAELNKELGKRWHDLSKEEQAKYFEMAKKDKETHKERYPEWSARENYAVNKKKTKKRRDKSIPSENNDQKKCRARFGVNNTEMWCKFCKRKKKCEYATDRSGGSDITDSQDGRGTSGAYSSSSESPSPKANAGIALTTQQQQAAMMHTMLMQMRLGSTTGASTHVPSPLASSSAGRSPLDANASDSESDVEEEEDEQIDPTVMQQTHDMLMQESMCTI [D9E]

# Variants of: B2
# Details: with bar1_caeel bar-1, Q18825
row,effect of a mutation on the interaction,Variant
1,decreasing interaction strength,MMADEELGEEVKVFRRDEDADDDPMISGETSEQQLADDKKEAVMEAELDGAGRNPSIDVLKSAFPKVEPMSPSFPGLMSHFSPGYSAAALPMFMPLFMNPYAAALRSPSLMFPMGAMSPTFPMFPPSPVYGAAIAAAAAKQHFENMAPLNMRAGHPMNQMGMPPYMHPSSMAPQNVDRRAQGGGKAKKDDHVKKPLNAFMWFMKENRKALLEEIGNNEKQSAELNKELGKRWHDLSKEEQAKYFEMAKKDKETHKERYPEWSARENYAVNKKKTKKRRDKSIPSENNDQKKCRARFGVNNTEMWCKFCKRKKKCEYATDRSGGSDITDSQDGRGTSGAYSSSSESPSPKANAGIALTTQQQQAAMMHTMLMQMRLGSTTGASTHVPSPLASSSAGRSPLDANASDSESDVEEEEDEQIDPTVMQQTHDMLMQESMCTI [D9E]
